Measured values taken from US20260167699A1 (Chugai, published 2026).
Changes are numbered by the printed parent chain.

What was measured:
Experiment in all cases: SPR; He Ab vs HeCon Ab (GpH7-A5/GpH7-B3/GpL16-k0)=100;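 further: surface plasmon resonance at 25 °C with the test antibody captured on a sensor chip via antigenic peptide, protein L or protein A/G and FcγR flowed over as analyte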
[1] = target: T1, FcγRIIb extracellular domain, C-terminal His tag (human, UniProt P31994 43-217)
T1 construct: extracellular domain; also called 2b
T1 sequence: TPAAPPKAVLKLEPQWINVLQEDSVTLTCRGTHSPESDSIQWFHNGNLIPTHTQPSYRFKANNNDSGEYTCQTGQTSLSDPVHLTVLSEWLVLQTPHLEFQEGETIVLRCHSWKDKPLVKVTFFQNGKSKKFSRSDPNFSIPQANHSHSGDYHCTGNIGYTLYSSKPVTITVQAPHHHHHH

[2] = target: T2, FcγRIIa(H) extracellular domain, C-terminal His tag (human, UniProt P12318 34-217)
T2 construct: extracellular domain; also called 2aH
T2 sequence: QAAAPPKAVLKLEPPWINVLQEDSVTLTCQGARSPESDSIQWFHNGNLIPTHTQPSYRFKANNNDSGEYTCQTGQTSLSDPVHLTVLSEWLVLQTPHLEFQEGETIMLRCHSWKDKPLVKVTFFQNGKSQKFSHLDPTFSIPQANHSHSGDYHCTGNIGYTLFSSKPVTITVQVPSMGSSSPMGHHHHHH

[3] = target: T3, FcγRIIa(R) extracellular domain, C-terminal His tag (human, UniProt P12318 34-217)
T3 construct: extracellular domain; also called 2aR
T3 sequence: T2 sequence with H134R

[4] = target: T4, FcγRIIIa extracellular domain, C-terminal His tag (human, UniProt P08637 17-208)
T4 construct: extracellular domain; also called 3a

[5] = target: T5, FcγRIa extracellular domain, C-terminal His tag (human, UniProt P12314 16-292)
T5 construct: extracellular domain; also called 1a
T5 sequence (P12314 other isoform, or with tags, fused parts or gaps): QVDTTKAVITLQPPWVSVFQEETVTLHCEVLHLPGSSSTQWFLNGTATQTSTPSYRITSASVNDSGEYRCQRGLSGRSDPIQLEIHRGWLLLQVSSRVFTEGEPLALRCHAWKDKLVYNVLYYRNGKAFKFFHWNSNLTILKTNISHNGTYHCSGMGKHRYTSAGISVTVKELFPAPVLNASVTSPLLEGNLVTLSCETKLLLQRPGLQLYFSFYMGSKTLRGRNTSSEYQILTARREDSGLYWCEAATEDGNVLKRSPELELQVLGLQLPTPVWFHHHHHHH

T4 sequence (P08637 other isoform, or with tags, fused parts or gaps): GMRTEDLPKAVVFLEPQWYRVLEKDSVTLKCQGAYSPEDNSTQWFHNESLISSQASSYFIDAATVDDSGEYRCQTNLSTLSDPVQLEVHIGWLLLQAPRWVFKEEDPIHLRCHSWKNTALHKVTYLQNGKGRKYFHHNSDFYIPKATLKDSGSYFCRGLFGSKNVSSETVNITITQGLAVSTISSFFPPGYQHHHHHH

B1: GpH7-A5/GpH7-B3 variant S324_12R/GpL16-k0 (antibody, human IgG1, kappa)
heavy 1: not shown
heavy 2: not shown
light: DIVMTQSPLSLPVTPGEPASISCQASESLVHSNRNTYLHWYLQKPGQSPQLLIYKVSNRFSGVPDRFSGSGSGTDFTLKISRVEAEDVGVYYCSQNTHVPPTFGQGTKVEIERTVAAPSVFIFPPSDEQLKSGTASVVCLLNNFYPREAKVQWKVDNALQSGNSQESVTEQDSKDSTYSLSSTLTLSKADYEKHKVYACEVTHQGLSSPVTKSFNRGEC
notes: heterodimerized IgG1, one H chain mutated; also called He Ab; copies: 1 + 1 + 2
He/Con 2b [1]: 82.4% | He/Con 2aH [2]: 107% | He/Con 2aR [3]: 84% | He/Con 3a [4]: 98.1% | He/Con 1a [5]: 95.9%

B2: GpH7-A5/GpH7-B3 variant Y296_16H/GpL16-k0 (antibody, human IgG1, kappa)
heavy 1: not shown
heavy 2: not shown
light: B1 light
notes: as for B1
He/Con 2b [1]: 93.5% | He/Con 2aH [2]: 101% | He/Con 2aR [3]: 100% | He/Con 3a [4]: 69.1% | He/Con 1a [5]: 103%

B3: GpH7-A5/GpH7-B3 variant Y296_02A/GpL16-k0 (antibody, human IgG1, kappa)
heavy 1: not shown
heavy 2: not shown
light: B1 light
notes: as for B1
He/Con 2b [1]: 83.1% | He/Con 2aH [2]: 89.1% | He/Con 2aR [3]: 93% | He/Con 3a [4]: 66.3% | He/Con 1a [5]: 99.8%

B4: GpH7-A5/GpH7-B3 variant Y296_12R/GpL16-k0 (antibody, human IgG1, kappa)
heavy 1: not shown
heavy 2: not shown
light: B1 light
notes: as for B1
He/Con 2b [1]: 80.5% | He/Con 2aH [2]: 89.1% | He/Con 2aR [3]: 95.3% | He/Con 3a [4]: 66.5% | He/Con 1a [5]: 103%

B5: GpH7-A5/GpH7-B3 variant Y296_09D/GpL16-k0 (antibody, human IgG1, kappa)
heavy 1: not shown
heavy 2: not shown
light: B1 light
notes: as for B1
He/Con 2b [1]: 100% | He/Con 2aH [2]: 102% | He/Con 2aR [3]: 101% | He/Con 3a [4]: 89% | He/Con 1a [5]: 103%

B6: GpH7-A5/GpH7-B3 variant S324_19Q/GpL16-k0 (antibody, human IgG1, kappa)
heavy 1: not shown
heavy 2: not shown
light: B1 light
notes: as for B1
He/Con 2b [1]: 87.2% | He/Con 2aH [2]: 106% | He/Con 2aR [3]: 86.8% | He/Con 3a [4]: 96.2% | He/Con 1a [5]: 106%

B7: GpH7-A5/GpH7-B3 variant Y296_19Q/GpL16-k0 (antibody, human IgG1, kappa)
heavy 1: not shown
heavy 2: not shown
light: B1 light
notes: as for B1
He/Con 2b [1]: 90.5% | He/Con 2aH [2]: 94.3% | He/Con 2aR [3]: 97.9% | He/Con 3a [4]: 71.4% | He/Con 1a [5]: 108%

B8: GpH7-A5/GpH7-B3 variant Y296_18N/GpL16-k0 (antibody, human IgG1, kappa)
heavy 1: not shown
heavy 2: not shown
light: B1 light
notes: as for B1
He/Con 2b [1]: 92.8% | He/Con 2aH [2]: 101% | He/Con 2aR [3]: 99.6% | He/Con 3a [4]: 67.9% | He/Con 1a [5]: 102%

B9: GpH7-A5/GpH7-B3 variant S324_18N/GpL16-k0 (antibody, human IgG1, kappa)
heavy 1: not shown
heavy 2: not shown
light: B1 light
notes: as for B1
He/Con 2b [1]: 106% | He/Con 2aH [2]: 109% | He/Con 2aR [3]: 101% | He/Con 3a [4]: 103% | He/Con 1a [5]: 109%

B10: GpH7-A5/GpH7-B3 variant Y296_13S/GpL16-k0 (antibody, human IgG1, kappa)
heavy 1: not shown
heavy 2: not shown
light: B1 light
notes: as for B1
He/Con 2b [1]: 87.5% | He/Con 2aH [2]: 96.1% | He/Con 2aR [3]: 97.5% | He/Con 3a [4]: 58.1% | He/Con 1a [5]: 102%

B11: GpH7-A5/GpH7-B3 variant Y296_10E/GpL16-k0 (antibody, human IgG1, kappa)
heavy 1: not shown
heavy 2: not shown
light: B1 light
notes: as for B1
He/Con 2b [1]: 99.4% | He/Con 2aH [2]: 94% | He/Con 2aR [3]: 98.2% | He/Con 3a [4]: 76.8% | He/Con 1a [5]: 102%

B12: GpH7-A5/GpH7-B3 variant Y296_03V/GpL16-k0 (antibody, human IgG1, kappa)
heavy 1: not shown
heavy 2: not shown
light: B1 light
notes: as for B1
He/Con 2b [1]: 80.4% | He/Con 2aH [2]: 86.9% | He/Con 2aR [3]: 92% | He/Con 3a [4]: 69.1% | He/Con 1a [5]: 101%

B13: GpH7-A5/GpH7-B3 variant S324_14T/GpL16-k0 (antibody, human IgG1, kappa)
heavy 1: not shown
heavy 2: not shown
light: B1 light
notes: as for B1
He/Con 2b [1]: 115% | He/Con 2aH [2]: 107% | He/Con 2aR [3]: 93.9% | He/Con 3a [4]: 112% | He/Con 1a [5]: 114%

B14: GpH7-A5/GpH7-B3 variant Y296_14T/GpL16-k0 (antibody, human IgG1, kappa)
heavy 1: not shown
heavy 2: not shown
light: B1 light
notes: as for B1
He/Con 2b [1]: 89.4% | He/Con 2aH [2]: 97.2% | He/Con 2aR [3]: 98.6% | He/Con 3a [4]: 60.7% | He/Con 1a [5]: 102%

B15: GpH7-A5/GpH7-B3 variant Y296_07I/GpL16-k0 (antibody, human IgG1, kappa)
heavy 1: not shown
heavy 2: not shown
light: B1 light
notes: as for B1
He/Con 2b [1]: 85.5% | He/Con 2aH [2]: 92.7% | He/Con 2aR [3]: 96.7% | He/Con 3a [4]: 75.8% | He/Con 1a [5]: 101%

B16: GpH7-A5/GpH7-B3 variant Y296_08L/GpL16-k0 (antibody, human IgG1, kappa)
heavy 1: not shown
heavy 2: not shown
light: B1 light
notes: as for B1
He/Con 2b [1]: 83.5% | He/Con 2aH [2]: 86.9% | He/Con 2aR [3]: 93.7% | He/Con 3a [4]: 72.4% | He/Con 1a [5]: 101%

B17: GpH7-A5/GpH7-B3 variant Y296_11K/GpL16-k0 (antibody, human IgG1, kappa)
heavy 1: not shown
heavy 2: not shown
light: B1 light
notes: as for B1
He/Con 2b [1]: 73.8% | He/Con 2aH [2]: 83.7% | He/Con 2aR [3]: 90.3% | He/Con 3a [4]: 53.3% | He/Con 1a [5]: 102%

B18: GpH7-A5/GpH7-B3 variant S324_15Y/GpL16-k0 (antibody, human IgG1, kappa)
heavy 1: not shown
heavy 2: not shown
light: B1 light
notes: as for B1
He/Con 2b [1]: 115% | He/Con 2aH [2]: 114% | He/Con 2aR [3]: 107% | He/Con 3a [4]: 110% | He/Con 1a [5]: 107%

B19: GpH7-A5/GpH7-B3 variant Y296_01G/GpL16-k0 (antibody, human IgG1, kappa)
heavy 1: not shown
heavy 2: not shown
light: B1 light
notes: as for B1
He/Con 2b [1]: 80.4% | He/Con 2aH [2]: 91.6% | He/Con 2aR [3]: 91.6% | He/Con 3a [4]: 51.3% | He/Con 1a [5]: 99.4%

B20: GpH7-A5/GpH7-B3 variant Y296_06M/GpL16-k0 (antibody, human IgG1, kappa)
heavy 1: not shown
heavy 2: not shown
light: B1 light
notes: as for B1
He/Con 2b [1]: 89% | He/Con 2aH [2]: 94.2% | He/Con 2aR [3]: 96.8% | He/Con 3a [4]: 74.6% | He/Con 1a [5]: 101%

B21: GpH7-A5/GpH7-B3 variant Y296_04F/GpL16-k0 (antibody, human IgG1, kappa)
heavy 1: not shown
heavy 2: not shown
light: B1 light
notes: as for B1
He/Con 2b [1]: 101% | He/Con 2aH [2]: 97.8% | He/Con 2aR [3]: 105% | He/Con 3a [4]: 79.5% | He/Con 1a [5]: 101%
